120 sequences from the supplement of paper PMC10126150 can be followed below.

± gives the standard deviation of the averaged measurements.

The test system of this data set is ATP. Description: switch fluorescence ratio, 500 uM ATP over buffer (Cy3 cluster intensity, sum of 5 cycles each) (fold (ratio)); higher = stronger signal-on switching upon ATP binding; sequences stand for … in TCGTCGGCAGCGTCAGATGTGTATAAGAGACAGTTTTTTTTTTTTTTTTTTTTTTTTT…TC. The note with it: aptamer strand: ATP DNA aptamer (quencher-CACCTGGGGGAGTATTGCGGAGGAAGG + anchor), 100 nM annealed; ATP concentration: 500 uM. The procedure, abridged: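 Five buffer/ATP imaging cycles were run on Cy3-labelled switching-strand clusters on a modified Illumina MiSeq flow-cell, with NaOH stripping and re-annealing between cycles. In each cycle, clusters annealed to 100 nM quencher-labelled ATP aptamer were imaged in selection buffer, then after 15 min with 500 uM ATP at 22 °C. Per cluster, the fluorescence ratio is summed target-cycle over summed buffer-cycle Cy3 intensity, averaged per switch-domain sequence. Only clusters within 100-1000 RFU were kept.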
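Note: ATP exposure 15 min at 22 °C before imaging.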

Consider TAAATTGGTT, for which the switch fluorescence ratio amounted to 0.981 ± 0.0078.

On to TAAATTTGAA, for which the switch fluorescence ratio came to 0.976 ± 0.0034.

Regarding TAAATTTGGG, the switch fluorescence ratio came to 0.974 ± 0.017.

Regarding TAAATTTTTT, the switch fluorescence ratio came to 0.996 ± 0.032.

Take TAACAACGTA: the switch fluorescence ratio amounted to 1.066 ± 0.0064.

Consider TAACAGATTT, for which the switch fluorescence ratio is 0.958 ± 0.0034.

Turning to TAACAGTAGG, the switch fluorescence ratio came to 1.05 ± 0.038.

For TAACATCGGT, the switch fluorescence ratio was 0.996 ± 0.021.

As for TAACATGTGG, the switch fluorescence ratio is 1.017 ± 0.01.

As to TAACCCTGAA, the switch fluorescence ratio turned out to be 0.984 ± 0.015.

TAACCGGATT: the switch fluorescence ratio worked out at 1.1 ± 0.053.

Turning to TAACGAAACT, the switch fluorescence ratio was found to be 1.26 ± 0.28.

With TAACGAGTCT, the switch fluorescence ratio was 1.01 ± 0.029.

As for TAACGCAGCT, the switch fluorescence ratio turned out to be 1.07 ± 0.073.

Take TAACGGAGT: the switch fluorescence ratio stood at 1.01 ± 0.015.

As to TAACGGCTGC, the switch fluorescence ratio was found to be 1 ± 0.051.

As to TAACGGGGCA, the switch fluorescence ratio was 0.9842 ± 0.003.

Regarding TAACGGGTGG, the switch fluorescence ratio came out at 1.01 ± 0.037.

Turning to TAACGTTTTG, the switch fluorescence ratio came out at 0.989 ± 0.025.

Regarding TAACTATTTT, the switch fluorescence ratio is 1.01 ± 0.016.

For TAACTCACTA, the switch fluorescence ratio came to 1.15 ± 0.017.

On to TAACTGTTTT, for which the switch fluorescence ratio was determined as 1.06 ± 0.056.

Take TAACTTTTCG: the switch fluorescence ratio stood at 1.004 ± 0.0028.

With TAAGAAAATT, the switch fluorescence ratio stood at 0.993 ± 0.023.

For TAAGACAAAG, the switch fluorescence ratio worked out at 0.992 ± 0.053.

Take TAAGACGGTT: the switch fluorescence ratio turned out to be 1.01 ± 0.015.

As to TAAGAGGTTT, the switch fluorescence ratio was 0.995 ± 0.01.

Regarding TAAGAGTACA, the switch fluorescence ratio stood at 1.07 ± 0.011.

As to TAAGAGTGCT, the switch fluorescence ratio was 0.9726 ± 0.0043.

With TAAGAGTTC, the switch fluorescence ratio turned out to be 0.99 ± 0.034.

Turning to TAAGCAGACG, the switch fluorescence ratio came out at 0.9687 ± 0.0061.

As for TAAGCAGTTA, the switch fluorescence ratio worked out at 1.08 ± 0.12.

With TAAGCCCACG, the switch fluorescence ratio amounted to 1.09 ± 0.023.

As to TAAGCGGCGG, the switch fluorescence ratio worked out at 1 ± 0.036.

With TAAGCGGGGG, the switch fluorescence ratio is 0.999 ± 0.017.

For the sequence TAAGCTCTGT, the switch fluorescence ratio was 0.984 ± 0.021.

For TAAGCTGACG, the switch fluorescence ratio was 0.9973 ± 0.0098.

As for TAAGCTTATG, the switch fluorescence ratio stood at 0.9852 ± 0.0033.

Turning to TAAGGAAGTT, the switch fluorescence ratio amounted to 1.009 ± 0.0096.

With TAAGGACGAC, the switch fluorescence ratio amounted to 1.02 ± 0.026.

On to TAAGGACGGC, for which the switch fluorescence ratio turned out to be 1.06 ± 0.035.

Consider TAAGGAGTAA, for which the switch fluorescence ratio was found to be 1.034 ± 0.01.

Consider TAAGGAGTGC, for which the switch fluorescence ratio is 0.955 ± 0.12.

As to TAAGGATTAT, the switch fluorescence ratio stood at 1.008 ± 0.0024.

With TAAGGCATAG, the switch fluorescence ratio was determined as 1.04 ± 0.044.

On to TAAGGCGAAC, for which the switch fluorescence ratio worked out at 1.03 ± 0.015.

For the sequence TAAGGCGGTG, the switch fluorescence ratio was found to be 1.04 ± 0.061.

Regarding TAAGGCGTAG, the switch fluorescence ratio was found to be 1.08 ± 0.061.

Turning to TAAGGCGTTA, the switch fluorescence ratio worked out at 0.985 ± 0.031.

Take TAAGGCTCCC: the switch fluorescence ratio was 1.063 ± 0.0044.

As to TAAGGGAATT, the switch fluorescence ratio turned out to be 1 ± 0.036.

Consider TAAGGGGATG, for which the switch fluorescence ratio came to 0.99 ± 0.011.

In the case of TAAGGGGCAA, the switch fluorescence ratio was determined as 1.01 ± 0.018.

On to TAAGGGGCGG, for which the switch fluorescence ratio is 0.989 ± 0.04.

As to TAAGGGGGGT, the switch fluorescence ratio is 1.02 ± 0.034.

Take TAAGGGGGTG: the switch fluorescence ratio turned out to be 1.01 ± 0.023.

Consider TAAGGGTGTA, for which the switch fluorescence ratio is 0.9934 ± 0.004.

For TAAGGGTTAC, the switch fluorescence ratio is 0.996 ± 0.03.

Take TAAGGTAGGT: the switch fluorescence ratio came to 0.993 ± 0.016.

TAAGGTTGAC: the switch fluorescence ratio turned out to be 0.9953 ± 0.0035.

TAAGGTTGTA: the switch fluorescence ratio was determined as 0.9705 ± 0.0047.

As to TAAGTAAAAT, the switch fluorescence ratio was determined as 0.9968 ± 0.0089.

TAAGTACGTG: the switch fluorescence ratio was 1.18 ± 0.035.

As to TAAGTAGATT, the switch fluorescence ratio worked out at 0.995 ± 0.018.

Turning to TAAGTATCGC, the switch fluorescence ratio was 1.03 ± 0.036.

As for TAAGTATTCG, the switch fluorescence ratio was determined as 0.9972 ± 0.0086.

Consider TAAGTATTGT, for which the switch fluorescence ratio was determined as 1.012 ± 0.0084.

Regarding TAAGTCCACC, the switch fluorescence ratio amounted to 1.012 ± 0.01.

For TAAGTCCCCA, the switch fluorescence ratio was 1.01 ± 0.052.

On to TAAGTCCTT, for which the switch fluorescence ratio was found to be 1.01 ± 0.048.

Regarding TAAGTGACGG, the switch fluorescence ratio was found to be 1.04 ± 0.036.

On to TAAGTGGGGA, for which the switch fluorescence ratio stood at 0.959 ± 0.032.

TAAGTGGGTA: the switch fluorescence ratio is 0.991 ± 0.011.

Turning to TAAGTGGGTG, the switch fluorescence ratio came out at 1.01 ± 0.027.

Consider TAAGTGGTGA, for which the switch fluorescence ratio is 1.04 ± 0.056.

With TAAGTTGAGT, the switch fluorescence ratio worked out at 1.01 ± 0.0093.

For the sequence TAAGTTGTGT, the switch fluorescence ratio was 0.972 ± 0.036.

Consider TAAGTTGTTG, for which the switch fluorescence ratio amounted to 0.993 ± 0.042.

Regarding TAAGTTGTTT, the switch fluorescence ratio was determined as 0.996 ± 0.013.

For TAATAAAAAA, the switch fluorescence ratio came out at 0.9772 ± 0.0069.

Regarding TAATAAAGGT, the switch fluorescence ratio is 0.995 ± 0.025.

For the sequence TAATAAATCA, the switch fluorescence ratio amounted to 1 ± 0.036.

As to TAATACTTCG, the switch fluorescence ratio came out at 1.03 ± 0.012.

As to TAATAGAAGT, the switch fluorescence ratio stood at 0.979 ± 0.052.

For the sequence TAATAGGGGG, the switch fluorescence ratio is 1.02 ± 0.035.

With TAATAGGTTC, the switch fluorescence ratio is 0.972 ± 0.024.

Regarding TAATATGGGT, the switch fluorescence ratio amounted to 0.988 ± 0.023.

On to TAATATGTTC, for which the switch fluorescence ratio worked out at 1 ± 0.037.

Take TAATATTTCG: the switch fluorescence ratio was determined as 1.05 ± 0.04.

As to TAATCAGGAA, the switch fluorescence ratio came out at 1.015 ± 0.0046.

Regarding TAATCCATTT, the switch fluorescence ratio was determined as 1.02 ± 0.036.

In the case of TAATCCTCGT, the switch fluorescence ratio came out at 1.005 ± 0.0058.

TAATCCTTTG: the switch fluorescence ratio is 1.01 ± 0.048.

Turning to TAATCGCGGC, the switch fluorescence ratio is 1.31 ± 0.35.

As for TAATCGGGAA, the switch fluorescence ratio was found to be 1 ± 0.017.

Consider TAATCTTTGG, for which the switch fluorescence ratio is 0.961 ± 0.035.

With TAATGACTGT, the switch fluorescence ratio is 1.02 ± 0.045.

On to TAATGAGCTT, for which the switch fluorescence ratio came out at 0.995 ± 0.013.

Turning to TAATGATGAG, the switch fluorescence ratio was found to be 0.987 ± 0.028.

On to TAATGATTGA, for which the switch fluorescence ratio is 0.985 ± 0.0078.

TAATGATTGC: the switch fluorescence ratio stood at 1.056 ± 0.0026.

In the case of TAATGCCAGG, the switch fluorescence ratio came to 1.088 ± 0.0038.

On to TAATGCGTGG, for which the switch fluorescence ratio is 0.999 ± 0.032.

For TAATGGGTAA, the switch fluorescence ratio was 1.01 ± 0.065.

As for TAATGGGTCC, the switch fluorescence ratio came out at 0.99 ± 0.019.

Take TAATGGTCCG: the switch fluorescence ratio turned out to be 1.03 ± 0.03.

Regarding TAATGGTTCG, the switch fluorescence ratio stood at 0.9962 ± 0.0025.

For the sequence TAATGGTTTG, the switch fluorescence ratio amounted to 1.08 ± 0.12.

On to TAATGTATTT, for which the switch fluorescence ratio came to 1.01 ± 0.02.

Regarding TAATGTGGCC, the switch fluorescence ratio worked out at 1.01 ± 0.039.

As for TAATGTGGGG, the switch fluorescence ratio came to 0.9715 ± 0.0056.

Regarding TAATGTGTTG, the switch fluorescence ratio is 0.994 ± 0.014.

For the sequence TAATGTTGGT, the switch fluorescence ratio was 1.025 ± 0.0014.

On to TAATGTTTAG, for which the switch fluorescence ratio was 0.99019 ± 0.00022.

As for TAATTAAATT, the switch fluorescence ratio amounted to 0.9767 ± 0.0046.

TAATTAGTTA: the switch fluorescence ratio was 0.992 ± 0.025.

On to TAATTCGTCG, for which the switch fluorescence ratio came to 0.997 ± 0.018.

TAATTGAAGA: the switch fluorescence ratio came out at 0.971 ± 0.012.

For TAATTGACCG, the switch fluorescence ratio turned out to be 1.091 ± 0.0088.

As to TAATTGAGCA, the switch fluorescence ratio was 0.99 ± 0.019.
